From article PMC12208539, “PPIL2 is a target of the JAK2/STAT5 pathway and promotes myeloproliferation via degradation of p53” (The Journal of Clinical Investigation, 2025)

Target: T1, recombinant His-p53 (UniProt P04637 1-393)
T1 construct: p53 from pET15b-p53 (Addgene plasmid 24859); also called pET15b-p53; source: recombinant, pET15b-p53 (Addgene)
Assay: pull-down; GST pulldown: 100 μg recombinant GST-PPIL2 protein with 100 μg recombinant His-p53 and MagneGST glutathione beads overnight at 4°C; washes with TENT buffer (1% Triton X-100, 140 mM NaCl, 2 mM EDTA, 20 mM Tris pH 8.0)
Settings: both partners purified

T1 sequence (P04637 whole entry): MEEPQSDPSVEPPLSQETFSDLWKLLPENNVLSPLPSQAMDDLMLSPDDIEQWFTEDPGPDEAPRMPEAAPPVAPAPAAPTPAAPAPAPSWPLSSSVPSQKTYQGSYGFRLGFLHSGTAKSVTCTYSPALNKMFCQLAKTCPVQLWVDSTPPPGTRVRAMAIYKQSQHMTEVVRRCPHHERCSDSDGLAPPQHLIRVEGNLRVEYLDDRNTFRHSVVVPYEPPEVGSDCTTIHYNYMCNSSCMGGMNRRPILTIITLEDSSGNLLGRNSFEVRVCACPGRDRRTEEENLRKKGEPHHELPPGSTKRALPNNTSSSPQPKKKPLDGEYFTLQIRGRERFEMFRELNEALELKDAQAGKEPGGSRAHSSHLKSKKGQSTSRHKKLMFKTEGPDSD

binding result: binds
B1: recombinant GST-PPIL2-U-box (domain or fragment, UniProt Q13356 1-190, looked up)
chain: MGKRQHQKDKMYITCAEYTHFYGGKKPDLPQTNFRRLPFDHCSLSLQPFVYPVCTPDGIVFDLLNIVPWLKKYGTNPSNGEKLDGRSLIKLNFSKNSEGKYHCPVLFTVFTNNTHIVAVRTTGNVYAYEAVEQLNIKAKNFRDLLTDEPFSRQDIITLQDPTNLDKFNVSNFYHVKNNMKIIDPDEEKAK
notes: peptidylprolyl isomerase-like 2 (PPIL2), U-box domain construct, residues 1-190; the tie of 1-190 to the U-box goes by the order of the list; also called GST-PPIL2 (1-190); U-box domain of PPIL2; source: recombinant, prokaryotic expression vector pGEX6p-3
